Assay [1] concerns the target STAT2 core (Homo sapiens) (UniProt P52630). As to conditions: cited from earlier work.
For a further assay, the target named is T1, STAT2-core (UniProt P52630 133-679).
T1 construct: source: purified
T1 sequence: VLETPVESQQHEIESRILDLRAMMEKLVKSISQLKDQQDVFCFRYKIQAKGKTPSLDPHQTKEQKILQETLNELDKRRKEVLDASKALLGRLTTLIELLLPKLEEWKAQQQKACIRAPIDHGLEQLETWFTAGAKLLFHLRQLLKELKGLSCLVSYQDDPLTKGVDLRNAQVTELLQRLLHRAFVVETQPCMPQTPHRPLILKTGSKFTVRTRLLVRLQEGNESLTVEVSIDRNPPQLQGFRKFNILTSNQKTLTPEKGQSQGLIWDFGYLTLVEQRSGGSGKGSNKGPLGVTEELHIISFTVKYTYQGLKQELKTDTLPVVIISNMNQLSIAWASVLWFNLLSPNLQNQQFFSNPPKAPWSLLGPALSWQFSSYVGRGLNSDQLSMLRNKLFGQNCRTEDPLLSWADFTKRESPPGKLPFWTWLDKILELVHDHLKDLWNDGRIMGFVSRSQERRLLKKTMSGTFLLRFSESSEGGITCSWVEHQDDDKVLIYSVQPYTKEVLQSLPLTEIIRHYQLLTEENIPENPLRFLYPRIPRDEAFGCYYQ
Kind of assay: ITC; 250 µM MeV-V_(CT221-299) injected (20 x 2.5 µL) into 35 µM STAT2-core; 20°C; 10 mM HEPES pH 7.4, 150 mM NaCl, 1 mM TCEP; 1:1 binding model; three independent experiments. As to conditions: both partners purified. (In general: In ITC the heat of successive injections is recorded.)

One may read the Kd as the free concentration of one partner at which half of the binding sites on the other are occupied at equilibrium, for simple one-to-one binding. The stoichiometry N is a count of units in the complex or per binding partner.

With MeV-V (from UniProt P0C774), the dissociation constant (Kd) in assay [1] was 180 nM.

B1: MeV-V_(CT221-299) (measles virus V protein, residues 221-299, containing the C-terminal domain) (domain or fragment)
chain: GPASTSETPIKKGHRREIGLIWNGDRVFIDRWCNPMCSKVTLGTIRARCTCGECPRVCEQCRTDTGVDTRIWYHNLPEIPE
notes: additional Gly and Pro before Ala221, left after HRV-3C protease digestion; 15N- or 13C,15N-labelled for the NMR experiments, unlabelled for ITC; Monomer by SEC; also called MeV-VCT construct; MeV-VCTD; source: E. coli BL21 star (DE3), purified (Glutathione Sepharose 4B, 3C protease elution, HisTrap, HIC, SEC); not shown: GST, N-terminal, cleaved
Regarding B1, in the assay with STAT2-core, the Kd stood at 212 nM, the dH is -12.5 kcal/mol and the “stoichiometry N” value is 1.17.

The values are drawn from article PMC12548473, “Solution structure of the C-terminal domain of the measles virus V protein in its free form and mechanistic analysis of STAT2 targeting” (Journal of Virology, 2025).
